Measured values from patent US20260116920A1 (PEPTIDREAM, published 2026).
Starred links: 1 amine or outer side, 2 acyl side, 3 side chain; linkers in the order of their positions; H or OH if unused. Positions of bridges follow the written chain, without caps; N, C: chain ends. Non-standard residues stand in square brackets, D forms with d. Primed or numbered codes have the meaning given here. No end group written: not given here. *: point of attachment. E(PEG8Me) = (S)-30-amino-27-oxo-2,5,8,11,14,17,20,23-octaoxa-26-azahentriacontane-31-oic acid, COCCOCCOCCOCCOCCOCCOCCOCCNC(=O)CC[C@H](N[*:1])C(=O)[*:2]; Phe(4-OMe)(3) = (S)-2-amino-3-(4-methoxyphenyl)propanoic acid (source code F4OMe), COc1ccc(C[C@H](N[*:1])C(=O)[*:2])cc1; F4aao = (S)-2-amino-3-(4-(carboxymethoxy)phenyl)propanoic acid, O=C([C@H](Cc1ccc(OCC(=O)[*:3])cc1)N[*:1])[*:2]; Phe(4-OMe)″ = (S)-2-amino-3-(4-methoxyphenyl)propanoic acid (F4OMe), COc1ccc(C[C@H](N[*:1])C(=O)[*:2])cc1; Phe(4-OMe) = F4OMe = (S)-2-amino-3-(4-methoxyphenyl)propanoic acid, COc1ccc(C[C@H](N[*:1])C(=O)[*:2])cc1; Trp(1-CH2CO) = O=C([C@H](Cc1cn(CC(=O)[*:3])c2ccccc12)N[*:1])[*:2]; Phe(3-COOH) = N[C@@H](Cc1cccc(C(=O)O)c1)C(=O)O; Trp(7-aza) = N[C@@H](Cc1c[nH]c2ncccc12)C(=O)O; NH(CH2CH2O)8Me = COCCOCCOCCOCCOCCOCCOCCOCCN*; NMePhe(3-Cl) = CN[C@@H](Cc1cccc(Cl)c1)C(=O)O; 3Pal(6-NH2) = Nc1ccc(C[C@H](N)C(=O)O)cn1; NMe3Pal = CN[C@@H](Cc1cccnc1)C(=O)O; NMe4Pal = CN[C@@H](Cc1ccncc1)C(=O)O; NMeY = CN[C@@H](Cc1ccc(O)cc1)C(=O)O; 3Pal = N[C@@H](Cc1cccnc1)C(=O)O; 4Pal = N[C@@H](Cc1ccncc1)C(=O)O

Target: T1, human transferrin receptor (hTfR) (human, UniProt P02786 89-760)
T1 construct: used as 0.5 uM hTfR dimer solution, immobilised on an NTA sensor chip (Ni capture plus EDC/NHS coupling); also called human TfR; TfR1
T1 sequence (P02786 89-760 limits assumed): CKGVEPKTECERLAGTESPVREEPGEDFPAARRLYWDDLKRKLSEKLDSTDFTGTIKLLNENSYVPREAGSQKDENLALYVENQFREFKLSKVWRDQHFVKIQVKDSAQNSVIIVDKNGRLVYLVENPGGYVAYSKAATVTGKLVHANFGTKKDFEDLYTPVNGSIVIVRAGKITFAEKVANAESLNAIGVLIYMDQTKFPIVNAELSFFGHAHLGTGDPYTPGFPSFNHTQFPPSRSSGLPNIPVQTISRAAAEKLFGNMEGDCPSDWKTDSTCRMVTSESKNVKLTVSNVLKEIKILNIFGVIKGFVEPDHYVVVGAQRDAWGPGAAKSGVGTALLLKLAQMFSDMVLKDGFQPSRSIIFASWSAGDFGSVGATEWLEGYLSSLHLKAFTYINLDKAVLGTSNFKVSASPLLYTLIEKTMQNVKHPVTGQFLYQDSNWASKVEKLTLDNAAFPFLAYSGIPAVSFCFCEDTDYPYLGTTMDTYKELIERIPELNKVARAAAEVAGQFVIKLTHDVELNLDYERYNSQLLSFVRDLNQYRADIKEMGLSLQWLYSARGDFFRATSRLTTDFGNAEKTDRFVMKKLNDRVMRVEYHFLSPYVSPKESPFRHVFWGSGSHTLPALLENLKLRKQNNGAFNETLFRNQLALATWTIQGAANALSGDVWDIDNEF
Assay: SPR; B = KD 1-100 nM
Procedure: NTA sensor chip (Global Life Sciences Technologies Japan K.K.) was inserted into BiacoreT200 (Global Life Sciences Technologies Japan K.K.), then the priming operation was performed three times by using running buffer containing: 10 mM HEPES pH 8.0 (Nacalai Tesque, Inc.), 150 mM NaCl (Nacalai Tesque, Inc.), 0.05% Tween 20 (Nacalai Tesque, Inc.), 0.1% BSA (SIGMA-ALDRICH) and 1.0% DMSO (FUJIFILM Wako Pure Chemical Corporation), and equilibrated at a flow rate of 30 μL/min. 350 mM EDTA solution was reacted at a flow rate of 10 μL/min for 60 seconds, 0.5 mM […] solution (Kishida Chemical Co., Ltd.) was reacted at a flow rate of 10 μL/min for 60 seconds, and then the NTA sensor chip was washed with 3 mM EDTA solution (Nacalai Tesque, Inc.) at a flow rate of 10 μL/min for 60 seconds. After mixing 50 μL each of 60 mM EDC solution (Global Life Science Technologies Japan K.K.) and 650 mM NHS solution (Global Life Science Technologies Japan K.K.), the reaction was carried out at a flow rate of 10 μL/min for 420 seconds. 150 μL of 0.5 μM hTfR dimer solution was prepared by dilution with running buffer and reacted at a flow rate of 10 μL/min for 300 seconds to immobilize hTfR on the NTA sensor chip. For the human transferrin receptor (hTfR), recombinant hTfR described in Example 2 of WO2018/124121 was used. After immobilization, capping was performed by reacting with 1.0 M ethanolamine solution (Global Life Sciences Technologies Japan K.K.) at a flow rate of 10 μL/min for 420 seconds. Peptide lysate prepared in DMSO solution to 10 mM was diluted with running buffer to be a final concentration of 10 μM peptide lysate, then peptide solutions of 100 nM, 50 nM, 25 nM, 10 nM, and 5 nM were prepared. Using the above samples, the kinetics of the peptide against hTfR was obtained by SPR measurement.
The kinetic evaluation model was single-cycle kinetics, and curve fitting was performed using Biacore T200 Evaluation Software Version 3.0 (Global Life Science Technologies Japan K.K.). The binding of the peptide to hTfR was evaluated by performing curve fitting on the obtained sensorgram by least squares method and obtaining the KD value.

| Binder | KD [nM] |
| --- | --- |
| {CH2CO}-AV[NMe3Pal]VWNY[Phe(4-OMe)″]IIRR[4Pal][NMeY]C-NH2 (thioether N-15; also: linker PEG4c) [894_0316] | 1 to 100 |
| {CH2CO}-AV[NMePhe(3-Cl)]VWNY[3Pal]IIRE(NH(CH2CH2O)8Me)[Phe(3-COOH)][NMeY]C-NH2 (thioether N-15; also: linker PEG4c) [894_0370] | 1 to 100 |
| Ac-AV[NMePhe(3-Cl)]V[Trp(1-CH2CO)]N[3Pal(6-NH2)][3Pal]IIRR[Phe(3-COOH)][NMeY]C (thioether (positions not given here); not fully specified (C-terminus, bridges)) [894_0347] | 1 to 100 |
| {CH2CO}-AV[NMePhe(3-Cl)]VWNY[4Pal]IIRRF[NMeY]C-NH2 (thioether N-15; also: linker PEG4c) [894_0319] | 1 to 100 |
| Ac-AV[NMePhe(3-Cl)]V[Trp(1-CH2CO)]N[3Pal(6-NH2)][F4aao]IIRR[4Pal][NMeY]C (thioether (positions not given here); not fully specified (C-terminus, bridges)) [894_0348] | 1 to 100 |
| Ac-AV[NMePhe(3-Cl)]V[Trp(1-CH2CO)]NY[F4aao]IIRE(NH(CH2CH2O)8Me)[4Pal][NMeY]C (thioether (positions not given here); not fully specified (C-terminus, bridges)) [894_0350] | 1 to 100 |
| Ac-AV[NMe4Pal]VWN[3Pal(6-NH2)][Phe(4-OMe)(3)]IIRRF[NMeY]C (thioether (positions not given here); not fully specified (C-terminus, bridges)) [894_0323] | 1 to 100 |
| Ac-AV[NMePhe(3-Cl)]V[Trp(1-CH2CO)]NY[Phe(4-OMe)(3)]IIR[E(PEG8Me)][4Pal][NMeY]C (thioether (positions not given here); not fully specified (C-terminus, bridges)) [894_0345] | 1 to 100 |
| Ac-AV[NMePhe(3-Cl)]VWNY[Phe(4-OMe)(3)]IIRR[4Pal][NMe3Pal]C (thioether (positions not given here); not fully specified (C-terminus, bridges)) [894_0325] | 1 to 100 |
| Ac-AV[NMePhe(3-Cl)]V[Trp(1-CH2CO)]NY[F4aao]IIRR[4Pal][NMeY]C (thioether (positions not given here); not fully specified (C-terminus, bridges)) [894_0343] | 1 to 100 |
| {CH2CO}-AV[NMePhe(3-Cl)]VWNY[3Pal]IIRRF[NMeY]C (thioether N-15; not fully specified (C-terminus)) [894_0318] | 1 to 100 |
| {CH2CO}-AV[NMePhe(3-Cl)]VWN[3Pal(6-NH2)][4Pal]IIRR[4Pal][NMeY]C-NH2 (thioether N-15; also: linker PEG4c) [894_0320] | 1 to 100 |
| Ac-AV[NMe3Pal]VWN[3Pal(6-NH2)][Phe(4-OMe)(3)]IIRRF[NMeY]C (thioether (positions not given here); not fully specified (C-terminus, bridges)) [894_0322] | 1 to 100 |
| Ac-AV[NMePhe(3-Cl)]V[Trp(1-CH2CO)]NY[3Pal]IIR[E(PEG8Me)]F[NMeY]C (thioether (positions not given here); not fully specified (C-terminus, bridges)) [894_0340] | 1 to 100 |
| {CH2CO}-AV[NMePhe(3-Cl)]V[Trp(1-CH2CO)]NY[3Pal]IIRE(NH(CH2CH2O)8Me)[4Pal][NMeY]C-NH2 (thioether N-15; also: linker PEG4c) [894_0351] | 1 to 100 |
| Ac-AV[NMePhe(3-Cl)]V[Trp(1-CH2CO)]N[3Pal(6-NH2)][F4aao]IIRR[Phe(3-COOH)][NMeY]C (thioether (positions not given here); not fully specified (C-terminus, bridges)) [894_0349] | 1 to 100 |
| {CH2CO}-AV[NMePhe(3-Cl)]VWNY[F4aao]IIRE(NH(CH2CH2O)8Me)F[NMeY]C (thioether N-15; not fully specified (C-terminus)) [894_0362] | 1 to 100 |
| {CH2CO}-AV[NMePhe(3-Cl)]VWN[3Pal(6-NH2)][F4aao]IIRR[Phe(3-COOH)][NMeY]C (thioether N-15; not fully specified (C-terminus)) [894_0368] | 1 to 100 |
| Ac-AV[NMePhe(3-Cl)]V[Trp(1-CH2CO)]NY[Phe(4-OMe)(3)]IIR[E(PEG8Me)]F[NMeY]C (thioether (positions not given here); not fully specified (C-terminus, bridges)) [894_0334] | 1 to 100 |
| {CH2CO}-AV[NMePhe(3-Cl)]V[Trp(1-CH2CO)]NY[3Pal]IIRE(NH(CH2CH2O)8Me)[Phe(3-COOH)][NMeY]C-NH2 (thioether N-15; also: linker PEG4c) [894_0352] | 1 to 100 |
| Ac-AV[NMePhe(3-Cl)]V[Trp(7-aza)]NY[Phe(4-OMe)(3)]IIRR[4Pal][NMeY]C (thioether (positions not given here); not fully specified (C-terminus, bridges)) [894_0324] | 1 to 100 |
| Ac-AV[NMePhe(3-Cl)]V[Trp(1-CH2CO)]N[3Pal(6-NH2)][F4aao]IIRRF[NMeY]C (thioether (positions not given here); not fully specified (C-terminus, bridges)) [894_0337] | 1 to 100 |
| {CH2CO}-AV[NMePhe(3-Cl)]VWNY[Phe(4-OMe)]IIRE(NH(CH2CH2O)8Me)[Phe(3-COOH)][NMeY]C-NH2 (thioether N-15; also: linker PEG4c) [894_0365] | 1 to 100 |
| Ac-AV[NMePhe(3-Cl)]V[Trp(1-CH2CO)]NY[3Pal]IIRR[Phe(3-COOH)][NMeY]C (thioether (positions not given here); not fully specified (C-terminus, bridges)) [894_0341] | 1 to 100 |
| Ac-AV[NMePhe(3-Cl)]V[Trp(1-CH2CO)]NY[Phe(4-OMe)(3)]IIR[E(PEG8Me)][Phe(3-COOH)][NMeY]C (thioether (positions not given here); not fully specified (C-terminus, bridges)) [894_0344] | 1 to 100 |
| {CH2CO}-AV[NMePhe(3-Cl)]VWN[3Pal(6-NH2)][F4aao]IIRR[4Pal][NMeY]C-NH2 (thioether N-15; also: linker PEG4c) [894_0369] | 1 to 100 |
| Ac-AV[NMePhe(3-Cl)]V[Trp(1-CH2CO)]N[3Pal(6-NH2)][Phe(4-OMe)(3)]IIRR[Phe(3-COOH)][NMeY]C (thioether (positions not given here); not fully specified (C-terminus, bridges)) [894_0339] | 1 to 100 |
